Measured values published in paper PMC11475020.

Target: T1, IscR-His (Caulobacter crescentus NA1000) (UniProt A0A0H3C7T4)
T1 sequence: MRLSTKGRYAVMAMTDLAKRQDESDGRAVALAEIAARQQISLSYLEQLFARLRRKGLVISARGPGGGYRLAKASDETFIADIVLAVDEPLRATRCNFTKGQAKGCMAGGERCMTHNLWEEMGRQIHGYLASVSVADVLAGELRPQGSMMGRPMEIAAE
Experiment: EMSA
Settings: 10 mM HEPES, 40 mM KCl, 1 mM MgCl2, 1 mM MnCl2, 5% glycerol, 0.1 mg/ml salmon sperm DNA, 500 ng probe, pH not stated, 30 min room temperature

Question: With “AAACCACTCCCGGAATCACGCGCAGATCGGAAGGGACACACAGGTTCCGCCTCCGCGCCGCGTACCACCCTGAACGACTGGAGGGGGGCGACCGGCCGCTTCTTAGCGCCGCCGTCGACCAACGTCCATGTCACGTGCGGGGTCTTGGCGTGTTGAGAGCTGTTCTCATTAAGGATCTGGCGATTTCGCGCGGTGAGCGAACGCTGTTTTC (double strand) [acn regulatory region]” as the sequence, how does the binding read?
Answer: binds
